Results: patent publication US20170320947A1 (published 2017)

How the values were obtained:
Cyno PSMA = biological target: T1, Cyno PSMA; assay: BLI (Octet)
T1 chain: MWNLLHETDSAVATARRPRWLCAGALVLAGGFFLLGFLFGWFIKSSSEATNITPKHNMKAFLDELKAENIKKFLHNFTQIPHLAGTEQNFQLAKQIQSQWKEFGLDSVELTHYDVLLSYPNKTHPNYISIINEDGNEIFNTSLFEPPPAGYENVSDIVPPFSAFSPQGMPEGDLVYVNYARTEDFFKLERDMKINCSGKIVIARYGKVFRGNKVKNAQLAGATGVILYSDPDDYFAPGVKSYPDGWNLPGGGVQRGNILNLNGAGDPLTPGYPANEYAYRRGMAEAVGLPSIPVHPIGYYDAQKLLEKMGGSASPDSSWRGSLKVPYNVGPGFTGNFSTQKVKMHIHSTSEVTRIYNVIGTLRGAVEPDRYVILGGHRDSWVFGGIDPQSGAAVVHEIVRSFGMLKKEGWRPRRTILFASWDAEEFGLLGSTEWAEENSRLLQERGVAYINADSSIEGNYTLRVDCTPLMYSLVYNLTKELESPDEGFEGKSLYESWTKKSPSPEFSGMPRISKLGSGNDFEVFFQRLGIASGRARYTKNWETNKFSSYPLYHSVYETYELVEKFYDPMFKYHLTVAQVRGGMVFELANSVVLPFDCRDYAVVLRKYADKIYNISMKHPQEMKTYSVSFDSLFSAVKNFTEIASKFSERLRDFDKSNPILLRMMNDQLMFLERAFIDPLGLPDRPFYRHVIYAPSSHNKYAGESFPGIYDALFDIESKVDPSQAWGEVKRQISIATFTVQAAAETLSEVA

Human PSMA = assay: BLI (Octet)

B1: XENP14484 (bispecific antibody)
heavy: EVQLVQSGAEVKKPGASVKVSCKTSGYTFTEYTIHWVRQAPGQSLEWMGNINPNNGGTTYNQKFQGRVTITVDKSTSTAYMELSSLRSEDTAVYYCAAGWNFDYWGQGTLVTVSSASTKGPSVFPLAPSSKSTSGGTAALGCLVKDYFPEPVTVSWNSGALTSGVHTFPAVLQSSGLYSLSSVVTVPSSSLGTQTYICNVNHKPSDTKVDKKVEPKSCDKTHTCPPCPAPPVAGPSVFLFPPKPKDTLMISRTPEVTCVVVDVKHEDPEVKFNWYVDGVEVHNAKTKPREEEYNSTYRVVSVLTVLHQDWLNGKEYKCKVSNKALPAPIEKTISKAKGQPREPQVYTLPPSREEMTKNQVSLTCDVSGFYPSDIAVEWESDGQPENNYKTTPPVLDSDGSFFLYSKLTVDKSRWEQGDVFSCSVMHEALHNHYTQKSLSLSPGK
scFv-Fc: not shown
light: DIVMTQSPDSLAVSLGERATLSCRASQDVGTAVDWYQQKPDQSPKLLIYWASTRHTGVPDRFTGSGSGTDFTLTISSLQAEDVAVYFCQQYNSYPLTFGAGTKVEIKRTVAAPSVFIFPPSDEQLKSGTASVVCLLNNFYPREAKVQWKVDNALQSGNSQESVTEQDSKDSTYSLSSTLTLSKADYEKHKVYACEVTHQGLSSPVTKSFNRGEC
Kd (Cyno PSMA): 0.2 nM
Kd (Human PSMA): 0.4 nM
